Data published in PMC11079029, “Intramolecular autoinhibition regulates the selectivity of PRPF40A tandem WW domains for proline-rich motifs” (Nature Communications, 2024).

B1: ATAD3A (protein, UniProt Q9NVI7 2-586, looked up)
ATPase family AAA …: SWLFGINKGPKGEGAGPPPPLPPAQPGAEGGGDRGLGDRPAPKDKWSNFDPTGLERAAKAARELEHSRYAKDALNLAQMQEQTLQLEQQSKLKEYEAAVEQLKSEQIRAQAEERRKTLSEETRQHQARAQYQDKLARQRYEDQLKQQQLLNEENLRKQEESVQKQEAMRRATVEREMELRHKNEMLRVEAEARARAKAERENADIIREQIRLKAAEHRQTVLESIRTAGTLFGEGFRAFVTDWDKVTATVAGLTLLAVGVYSAKNATLVAGRFIEARLGKPSLVRETSRITVLEALRHPIQVSRRLLSRPQDALEGVVLSPSLEARVRDIAIATRNTKKNRSLYRNILMYGPPGTGKTLFAKKLALHSGMDYAIMTGGDVAPMGREGVTAMHKLFDWANTSRRGLLLFVDEADAFLRKRATEKISEDLRATLNAFLYRTGQHSNKFMLVLASNQPEQFDWAINDRINEMVHFDLPGQEERERLVRMYFDKYVLKPATEGKQRLKLAQFDYGRKCSEVARLTEGMSGREIAQLAVSWQATAYASEDGVLTEAMMDTRVQDAVQQHQQKMCWLKAEGPGRGDEPSPS
B2: SF3B2 (protein, UniProt Q13435 1-895, looked up)
Splicing factor 3B subunit 2: MATEHPEPPKAELQLPPPPPPGHYGAWAAQELQAKLAEIGAPIQGNREELVERLQSYTRQTGIVLNRPVLRGEDGDKAAPPPMSAQLPGIPMPPPPLGLPPLQPPPPPPPPPPGLGLGFPMAHPPNLGPPPPLRVGEPVALSEEERLKLAQQQAALLMQQEERAKQQGDHSLKEHELLEQQKRAAVLLEQERQQEIAKMGTPVPRPPQDMGQIGVRTPLGPRVAAPVGPVGPTPTVLPMGAPVPRPRGPPPPPGDENREMDDPSVGPKIPQALEKILQLKESRQEEMNSQQEEEEMETDARSSLGQSASETEEDTVSVSKKEKNRKRRNRKKKKKPQRVRGVSSESSGDREKDSTRSRGSDSPAADVEIEYVTEEPEIYEPNFIFFKRIFEAFKLTDDVKKEKEKEPEKLDKLENSAAPKKKGFEEEHKDSDDDSSDDEQEKKPEAPKLSKKKLRRMNRFTVAELKQLVARPDVVEMHDVTAQDPKLLVHLKATRNSVPVPRHWCFKRKYLQGKRGIEKPPFELPDFIKRTGIQEMREALQEKEEQKTMKSKMREKVRPKMGKIDIDYQKLHDAFFKWQTKPKLTIHGDLYYEGKEFETRLKEKKPGDLSDELRISLGMPVGPNAHKVPPPWLIAMQRYGPPPSYPNLKIPGLNSPIPESCSFGYHAGGWGKPPVDETGKPLYGDVFGTNAAEFQTKTEEEEIDRTPWGELEPSDEESSEEEEEEESDEDKPDETGFITPADSGLITPGGFSSVPAGMETPELIELRKKKIEEAMDGSETPQLFTVLPEKRTATVGGAMMGSTHIYDMSTVMSRKGPAPELQGVEVALAPEELELDPMAMTQKYEEHVREQQAQVEKEDFSDMVAEHAAKQKQKKRKAQPQDSRGGSKKYKEFKF
B3: SF3B3 (protein, UniProt Q15393 1-1217, looked up)
Splicing factor 3B subunit 3: MFLYNLTLQRATGISFAIHGNFSGTKQQEIVVSRGKILELLRPDPNTGKVHTLLTVEVFGVIRSLMAFRLTGGTKDYIVVGSDSGRIVILEYQPSKNMFEKIHQETFGKSGCRRIVPGQFLAVDPKGRAVMISAIEKQKLVYILNRDAAARLTISSPLEAHKANTLVYHVVGVDVGFENPMFACLEMDYEEADNDPTGEAAANTQQTLTFYELDLGLNHVVRKYSEPLEEHGNFLITVPGGSDGPSGVLICSENYITYKNFGDQPDIRCPIPRRRNDLDDPERGMIFVCSATHKTKSMFFFLAQTEQGDIFKITLETDEDMVTEIRLKYFDTVPVAAAMCVLKTGFLFVASEFGNHYLYQIAHLGDDDEEPEFSSAMPLEEGDTFFFQPRPLKNLVLVDELDSLSPILFCQIADLANEDTPQLYVACGRGPRSSLRVLRHGLEVSEMAVSELPGNPNAVWTVRRHIEDEFDAYIIVSFVNATLVLSIGETVEEVTDSGFLGTTPTLSCSLLGDDALVQVYPDGIRHIRADKRVNEWKTPGKKTIVKCAVNQRQVVIALTGGELVYFEMDPSGQLNEYTERKEMSADVVCMSLANVPPGEQRSRFLAVGLVDNTVRIISLDPSDCLQPLSMQALPAQPESLCIVEMGGTEKQDELGERGSIGFLYLNIGLQNGVLLRTVLDPVTGDLSDTRTRYLGSRPVKLFRVRMQGQEAVLAMSSRSWLSYSYQSRFHLTPLSYETLEFASGFASEQCPEGIVAISTNTLRILALEKLGAVFNQVAFPLQYTPRKFVIHPESNNLIIIETDHNAYTEATKAQRKQQMAEEMVEAAGEDERELAAEMAAAFLNENLPESIFGAPKAGNGQWASVIRVMNPIQGNTLDLVQLEQNEAAFSVAVCRFSNTGEDWYVLVGVAKDLILNPRSVAGGFVYTYKLVNNGEKLEFLHKTPVEEVPAAIAPFQGRVLIGVGKLLRVYDLGKKKLLRKCENKHIANYISGIQTIGHRVIVSDVQESFIWVRYKRNENQLIIFADDTYPRWVTTASLLDYDTVAGADKFGNICVVRLPPNTNDEVDEDPTGNKALWDRGLLNGASQKAEVIMNYHVGETVLSLQKTTLIPGGSESLVYTTLSGGIGILVPFTSHEDHDFFQHVEMHLRSEHPPLCGRDHLSFRSYYFPVKNVIDGDLCEQFNSMEPNKQKNVSEELDRTPPEVSKKLEDIRTRYAF
B4: SF1 (protein, UniProt Q15637 2-639, looked up)
Splicing factor 1: ATGANATPLDFPSKKRKRSRWNQDTMEQKTVIPGMPTVIPPGLTREQERAYIVQLQIEDLTRKLRTGDLGIPPNPEDRSPSPEPIYNSEGKRLNTREFRTRKKLEEERHNLITEMVALNPDFKPPADYKPPATRVSDKVMIPQDEYPEINFVGLLIGPRGNTLKNIEKECNAKIMIRGKGSVKEGKVGRKDGQMLPGEDEPLHALVTANTMENVKKAVEQIRNILKQGIETPEDQNDLRKMQLRELARLNGTLREDDNRILRPWQSSETRSITNTTVCTKCGGAGHIASDCKFQRPGDPQSAQDKARMDKEYLSLMAELGEAPVPASVGSTSGPATTPLASAPRPAAPANNPPPPSLMSTTQSRPPWMNSGPSESRPYHGMHGGGPGGPGGGPHSFPHPLPSLTGGHGGHPMQHNPNGPPPPWMQPPPPPMNQGPHPPGHHGPPPMDQYLGSTPVGSGVYRLHQGKGMMPPPPMGMMPPPPPPPSGQPPPPPSGPLPPWQQQQQQPPPPPPPSSSMASSTPLPWQQNTTTTTTSAGTGSIPPWQQQQAAAAASPGAPQMQGNPTMVPLPPGVQPPLPPGAPPPPPPPPPGSAGMMYAPPPPPPPPMDPSNFVTMMGMGVAGMPPFGMPPAPPPPPPQN
B5: RBM17 (protein, UniProt Q96I25 2-401, looked up)
Splicing factor 45: SLYDDLGVETSDSKTEGWSKNFKLLQSQLQVKKAALTQAKSQRTKQSTVLAPVIDLKRGGSSDDRQIVDTPPHVAAGLKDPVPSGFSAGEVLIPLADEYDPMFPNDYEKVVKRQREERQRQRELERQKEIEEREKRRKDRHEASGFARRPDPDSDEDEDYERERRKRSMGGAAIAPPTSLVEKDKELPRDFPYEEDSRPRSQSSKAAIPPPVYEEQDRPRSPTGPSNSFLANMGGTVAHKIMQKYGFREGQGLGKHEQGLSTALSVEKTSKRGGKIIVGDATEKDASKKSDSNPLTEILKCPTKVVLLRNMVGAGEVDEDLEVETKEECEKYGKVGKCVIFEIPGAPDDEAVRIFLEFERVESAIKAVVDLNGRYFGGRVVKACFYNLDKFRVLDLAEQV

test system: GFP-tagged PRPF40A-Nter-MUT; assay: SILAC GFP-immunoprecipitation with quantitative mass spectrometry, mutant construct; assay type: binding, human (Hela cells); conditions: quantitative MS, Hela cells, protein by gene name
Protocol: The PRPF40A N-terminal region (isoform 2, residues 1-221) was PCR-amplified from RPE1 cDNA (ATCC, Cat# CRL-4000) cDNA. The sequence was amplified in two fragments and both fragments were combined by overhang. All PCRs were carried out using Q5 Polymerase (NEB) according to manufacturer’s protocol. The resulting PRPF40A N-terminal region was cloned into a GFP-expressing pcDNA5 vector (see pcDNA5 GFP vector in ref. [28]) using Q5 Site-Directed Mutagenesis Kit (NEB). Nter-MUT, containing the PPVP/PALPP motifs changed to AAAA/AAAAA, was obtained by mutating the N-ter-WW12-containing plasmid with Q5 site-directed mutagenesis. Plasmids were transformed into DH5alpha chemically competent cells. After culturing, DNA isolation was performed with either ZymoPURE Plasmid Miniprep Kit (Zymo Research) or QIAGEN Plasmid Plus Midi Kit (Qiagen). The sequence was confirmed by Sanger Sequencing (GATC Eurofins). All used oligonucleotides are shown in Supplementary Table 6.
Hela cells (ATCC, Cat# CCL-2, RRID:CVCL_0030) were cultured in DMEM SILAC medium (Thermo Fisher) supplemented with 10% filtered FBS (Sigma-Aldrich) and 1% penicillin-streptomycin (Thermo-Fisher). The SILAC medium contains either light (Arg0, Lys0), medium (Arg6, Lys4) or heavy (Arg10, Lys8) isotopes (Cambridge Isotopes Laboratories). Hela cells were cultivated for 14 days in SILAC medium to assure sufficient isotope incorporation. For transfection, 7 × 10^6 Hela cells were seeded in a 15 cm culture dish in 20 ml of respective SILAC medium and grown for 24 h. The cells were then transfected with 20 µg of plasmids expressing either GFP (Control), GFP-tagged N-ext-WW12 or GFP-tagged-N-ext-WW12-MUT utilizing 64 µl FuGENE (Promega) (ratio 1:3.2), according to manufacturer’s protocol.
24 h post-transfection, cells were washed twice in ice-cold PBS and harvested in 1 ml mRIPA buffer (50 mM Tris, 150 mM NaCl, 1 mM EDTA, 1% NP-40, 0.1% Na-deoxycholate), supplemented with 2 µl Turbo-DNase (Thermo Fisher) and 3 µl protease-inhibitor cocktail cOmplete (Sigma-Aldrich). Cell lysates were cleared by centrifugation at 16,000 × g, 4 °C, 15 min and concentration was measured using Pierce BCA Protein Assay kit (Thermo Scientific). The expressed constructs were pulled down by incubating 2.5 mg of lysate with 20 μl GFP-nanobody agarose beads (ChromoTek, GTA-20) for 1 h at 4 °C under constant agitation. Subsequently, beads were washed three times with mRIPA buffer without supplements, then eluted in 1X NuPAGE LDS sample buffer (Thermo Scientific). To detach the proteins from the beads, the eluate was heated to 70 °C for 10 min To evaluate the success of the immunoprecipitation, input (1%) and IP samples were analyzed on a NuPAGE 4–12% Bis-Tris-Acrylamide gel (Thermo Fisher) using NuPAGE MOPS SDS running buffer (Thermo Fisher). Proteins were stained using Sypro Ruby protein gel stain (Thermo Fisher) according to manufacturer’s protocol.
The eluted proteins of three SILAC states (light, medium, heavy) were combined. The proteins were then reduced in DTT, alkylated in iodoacetamide, and purified using the SP3 paramagnetic bead approach. This was followed by overnight enzymatic digestion using trypsin (1 µg per sample) in 50 mM ammonium bicarbonate at 37 °C. The peptide solution was then purified by solid phase extraction in C18 StageTips[99].
Peptides were separated by online reverse phase liquid chromatography using the EASY-nLC 1000 system (Thermo Scientific) in a 30-cm analytical column (inner diameter: 75 μm; heated at 50 °C) packed in-house with ReproSil-Pur 120 C18-AQ 1.9-μm beads (Dr. Maisch GmbH). The gradient separation was performed through a 105-min non-linear gradient of 1.6–32% acetonitrile with 0.1% formic acid at a nanoflow rate of 225 nl/min. The eluted peptides were sprayed directly by electrospray ionization into a Q Exactive Plus Orbitrap mass spectrometer (Thermo Scientific). […]

B1 and B2 are within 0.2 log units of each other in “Immunoprecipitation enrichment MUT vs WT, log2 FC” value: 1.016 for the first, 0.8966 for the second.

B3 and B4 are within 0.2 log units of each other in “Immunoprecipitation enrichment MUT vs WT, log2 FC” value: 0.8966 for the first, 0.9625 for the second.

For B5, the “Immunoprecipitation enrichment MUT vs WT, log2 FC” value was 1.293.
